This note sets out measurements from patent publication US20160298117, “PEANUT-BINDING NUCLEIC ACID MOLECULE AND USE THEREOF” (NEC Solution Innovators, Ltd., published 2016).

beta-conglycinin (undenatured), sequence (P0DO16 63-605, chain 1 of 3): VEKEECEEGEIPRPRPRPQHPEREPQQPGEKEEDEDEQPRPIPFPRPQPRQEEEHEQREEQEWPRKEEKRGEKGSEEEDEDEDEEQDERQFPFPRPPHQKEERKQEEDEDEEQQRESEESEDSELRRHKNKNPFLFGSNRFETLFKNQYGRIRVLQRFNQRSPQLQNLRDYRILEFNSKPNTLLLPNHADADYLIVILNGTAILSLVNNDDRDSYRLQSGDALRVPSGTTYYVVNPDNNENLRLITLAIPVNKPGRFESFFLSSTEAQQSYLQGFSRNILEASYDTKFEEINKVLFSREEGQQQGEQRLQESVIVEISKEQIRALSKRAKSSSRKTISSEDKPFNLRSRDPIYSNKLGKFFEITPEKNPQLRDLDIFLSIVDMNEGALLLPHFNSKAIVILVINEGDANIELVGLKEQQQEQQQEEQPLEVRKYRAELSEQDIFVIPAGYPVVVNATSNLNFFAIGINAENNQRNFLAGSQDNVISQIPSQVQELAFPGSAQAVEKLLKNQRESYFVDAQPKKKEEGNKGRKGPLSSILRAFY
beta-conglycinin (undenatured), sequence (P11827 63-621, chain 2 of 3): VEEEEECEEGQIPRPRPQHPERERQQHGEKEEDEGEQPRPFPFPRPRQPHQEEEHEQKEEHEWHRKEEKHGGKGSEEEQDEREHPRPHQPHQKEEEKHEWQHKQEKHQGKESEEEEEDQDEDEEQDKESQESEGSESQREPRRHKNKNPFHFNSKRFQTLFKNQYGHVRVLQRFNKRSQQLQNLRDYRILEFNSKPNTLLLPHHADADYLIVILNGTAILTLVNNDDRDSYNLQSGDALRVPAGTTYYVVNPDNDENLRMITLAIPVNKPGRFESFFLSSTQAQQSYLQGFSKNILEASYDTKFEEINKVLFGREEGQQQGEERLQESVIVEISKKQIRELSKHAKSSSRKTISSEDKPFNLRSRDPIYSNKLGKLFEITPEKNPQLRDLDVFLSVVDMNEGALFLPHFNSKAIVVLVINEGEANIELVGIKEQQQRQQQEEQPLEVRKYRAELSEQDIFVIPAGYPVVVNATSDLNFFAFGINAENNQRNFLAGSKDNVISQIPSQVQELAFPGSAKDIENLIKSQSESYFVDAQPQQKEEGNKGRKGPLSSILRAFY
beta-conglycinin (undenatured), sequence (P25974 24-439, chain 3 of 3): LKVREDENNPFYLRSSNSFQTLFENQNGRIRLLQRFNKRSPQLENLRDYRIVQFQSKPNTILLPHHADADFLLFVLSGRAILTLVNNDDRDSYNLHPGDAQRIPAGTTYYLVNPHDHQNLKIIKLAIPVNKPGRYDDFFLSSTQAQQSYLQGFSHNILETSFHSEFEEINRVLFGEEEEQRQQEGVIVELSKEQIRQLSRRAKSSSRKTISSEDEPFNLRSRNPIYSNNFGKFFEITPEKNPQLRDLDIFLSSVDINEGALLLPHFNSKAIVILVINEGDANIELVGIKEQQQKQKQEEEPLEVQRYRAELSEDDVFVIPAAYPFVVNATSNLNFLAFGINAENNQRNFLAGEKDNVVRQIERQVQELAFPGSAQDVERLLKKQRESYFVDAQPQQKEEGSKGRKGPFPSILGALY

For one data set, the target named is T1, Ara h1 (heat-denatured, purified from parboiled peanut) (Arachis hypogaea, UniProt P43238 P43238:26-626).
T1 sequence: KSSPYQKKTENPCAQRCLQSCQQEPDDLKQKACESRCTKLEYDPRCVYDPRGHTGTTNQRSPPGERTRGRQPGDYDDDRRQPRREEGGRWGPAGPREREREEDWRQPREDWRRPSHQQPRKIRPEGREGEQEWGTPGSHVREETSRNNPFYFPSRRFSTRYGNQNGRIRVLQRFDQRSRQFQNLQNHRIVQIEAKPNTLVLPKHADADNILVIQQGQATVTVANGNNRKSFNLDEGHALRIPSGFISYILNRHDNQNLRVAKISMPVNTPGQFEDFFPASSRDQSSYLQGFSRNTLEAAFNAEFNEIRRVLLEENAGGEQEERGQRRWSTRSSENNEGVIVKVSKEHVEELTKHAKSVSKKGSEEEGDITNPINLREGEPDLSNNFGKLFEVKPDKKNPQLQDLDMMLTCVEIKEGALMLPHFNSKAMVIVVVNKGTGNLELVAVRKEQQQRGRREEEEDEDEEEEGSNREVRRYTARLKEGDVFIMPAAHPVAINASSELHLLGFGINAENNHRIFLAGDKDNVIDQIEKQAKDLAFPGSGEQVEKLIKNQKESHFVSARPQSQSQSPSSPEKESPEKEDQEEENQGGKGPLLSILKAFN
The data set can be described thus: SPR; very high binding. The following applies: tags: INDOOR biotechnologies NA-AH1-1. Here is the method: (§1) First, as a sensor chip designed specifically for the ProteON, a streptavidin-immobilized chip (trade name: ProteOn NLC Sensor Chip, BioRad) was set in the ProteON XPR36. Biotinylated poly(dT) at 5 μmol/L was injected to a flow cell of the sensor chip using ultrapure water (DDW), and the binding was allowed to proceed until the signal intensity (RU: Resonance Unit) reached about 900 RU. The biotinylated poly(dT) was prepared by biotinylating the 5′ end of 24-mer deoxythymidine. Then, the poly(dA)-added aptamer at 1 μmol/L was injected to the flow cell of the chip using an SPR buffer at a flow rate of 25 μL/min for 80 seconds, and the binding was allowed to proceed until the signal intensity reached about 800 RU. […] Subsequently, the sample was injected using the SPR buffer at a flow rate of 50 μL/min for 120 seconds, followed by washing performed by flowing the SPR buffer under the same conditions. Signal intensity measurement was performed concurrently with the injection of the sample and the washing with the SPR buffer.
(§2) Except that the following eight types of aptamers were used as pyrimidine-rich aptamers, the binding forces to Ara h1, heat-denatured peanut proteins, undenatured β-conglycinin, and heat-denatured soybean proteins were examined by SPR in the same manner as in the above-described examples.
CTCTCTCTCCCCCCCCCCCTCTCTCAAAAAAAAAAAAAAAAAAAAAAAA (ssDNA) [CT25_C11]: the binding result was “binds”.

Take CTCTCTCTCTCCCCCCCTCTCTCTCAAAAAAAAAAAAAAAAAAAAAAAA (ssDNA) [CT25_C7]: the binding result was “binds”.

On to CTCTCTCTCTCTCTCTCTCTCTCTCAAAAAAAAAAAAAAAAAAAAAAAA (ssDNA) [CT25_C0], for which the binding result was “binds”.

As for CACACACACCCCCCCCCCCACACACAAAAAAAAAAAAAAAAAAAAAAAAA (ssDNA) [CA25_C11], the binding result is “binds”.

On to CACACACACACACACACACACACACAAAAAAAAAAAAAAAAAAAAAAAAA (ssDNA) [CA25_C0], for which the binding result is “binds”.

Regarding CACACACACACCCCCCCACACACACAAAAAAAAAAAAAAAAAAAAAAAAA (ssDNA) [CA25_C7], the binding result is “binds”.

Consider CACACACACACACCCACACACACACAAAAAAAAAAAAAAAAAAAAAAAAA (ssDNA) [CA25_C3], for which the binding result is “binds”.

A further data set concerns the target beta-conglycinin (undenatured) (Glycine max, UniProt P0DO16;P11827;P25974 P0DO16:63-605,P11827:63-621,P25974:24-439). Description: SPR; little binding. The following applies: tags: Sigma C5868-5GM. Here is the method: as §1, §2
For orientation: SPR reads the build-up and loss of mass on a sensor chip optically.
For the molecule CTCTCTCTCCCCCCCCCCCTCTCTCAAAAAAAAAAAAAAAAAAAAAAAA (ssDNA) [CT25_C11], the binding result was “no binding”.

For the molecule CTCTCTCTCTCCCCCCCTCTCTCTCAAAAAAAAAAAAAAAAAAAAAAAA (ssDNA) [CT25_C7], the binding result is reported as “no binding”.

With CTCTCTCTCTCTCTCTCTCTCTCTCAAAAAAAAAAAAAAAAAAAAAAAA (ssDNA) [CT25_C0], the binding result is “no binding”.

Take CACACACACCCCCCCCCCCACACACAAAAAAAAAAAAAAAAAAAAAAAAA (ssDNA) [CA25_C11]: the binding result was “no binding”.

Consider CACACACACACACACACACACACACAAAAAAAAAAAAAAAAAAAAAAAAA (ssDNA) [CA25_C0], for which the binding result is recorded as “no binding”.

Turning to CACACACACACCCCCCCACACACACAAAAAAAAAAAAAAAAAAAAAAAAA (ssDNA) [CA25_C7], the binding result is recorded as “no binding”.

Consider CACACACACACACCCACACACACACAAAAAAAAAAAAAAAAAAAAAAAAA (ssDNA) [CA25_C3], for which the binding result was “no binding”.
